Results reported in article PMC6810841.

Molecular target: BicDR1 E165R/E167K-GFP (mouse) (UniProt A0JNT9)
Chain of UniProt A0JNT9 (A0JNT9 whole entry E165R/E167K): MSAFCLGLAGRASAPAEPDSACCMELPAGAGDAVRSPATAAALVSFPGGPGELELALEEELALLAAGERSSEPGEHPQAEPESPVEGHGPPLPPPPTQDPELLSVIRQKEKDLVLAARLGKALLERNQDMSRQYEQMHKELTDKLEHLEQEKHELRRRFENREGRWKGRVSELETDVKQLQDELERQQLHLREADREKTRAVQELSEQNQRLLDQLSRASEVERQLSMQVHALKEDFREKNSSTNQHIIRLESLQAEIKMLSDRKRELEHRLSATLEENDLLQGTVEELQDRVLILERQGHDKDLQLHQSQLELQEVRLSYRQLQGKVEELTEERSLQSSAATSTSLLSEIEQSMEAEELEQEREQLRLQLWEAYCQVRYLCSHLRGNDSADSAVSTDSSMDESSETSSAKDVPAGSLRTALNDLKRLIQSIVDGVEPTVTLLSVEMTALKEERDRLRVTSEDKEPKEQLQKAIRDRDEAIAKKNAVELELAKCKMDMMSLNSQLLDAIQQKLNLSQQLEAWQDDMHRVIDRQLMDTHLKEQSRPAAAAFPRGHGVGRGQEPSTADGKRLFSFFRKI

dynein long tail (SNAP-DYNC1H1 1-1,074-GST with associated chains) (from UniProt Q14204;O43237;P63172;P63167;Q9NP97) (complex)
reduction of recruitment against BicDR1: 50%
